# Laboratory results published in patent publication US20170183415A1 (Novartis, published 2017).
# T1: immobilized CD123 (UniProt P26951 19-305, limits assumed)
# T1 construct: also called IL-3Rα; IL3Rα
# T1 sequence (looked up): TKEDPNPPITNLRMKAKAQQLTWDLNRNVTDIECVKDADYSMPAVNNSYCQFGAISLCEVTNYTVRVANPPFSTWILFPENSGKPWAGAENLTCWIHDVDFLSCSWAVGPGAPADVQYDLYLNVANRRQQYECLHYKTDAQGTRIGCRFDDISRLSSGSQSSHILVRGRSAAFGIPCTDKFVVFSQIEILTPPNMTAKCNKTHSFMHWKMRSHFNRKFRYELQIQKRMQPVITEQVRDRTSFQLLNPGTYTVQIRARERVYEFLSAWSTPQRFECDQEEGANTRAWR
# T2: human CD123-Fc (human, UniProt P26951 19-305, limits assumed)
# T2 construct: Staining reagent; not shown: Fc part
# T2 sequence (looked up): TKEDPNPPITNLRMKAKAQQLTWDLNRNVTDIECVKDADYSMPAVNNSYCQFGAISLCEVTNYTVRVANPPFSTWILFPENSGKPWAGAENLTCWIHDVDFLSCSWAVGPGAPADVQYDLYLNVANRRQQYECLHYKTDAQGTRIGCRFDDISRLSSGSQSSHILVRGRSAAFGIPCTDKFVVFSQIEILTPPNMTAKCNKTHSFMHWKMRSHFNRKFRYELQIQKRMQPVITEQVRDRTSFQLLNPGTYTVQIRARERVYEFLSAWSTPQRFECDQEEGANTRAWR
# Biological target: T1, immobilized CD123
# Assay: ELISA, soluble scFv on immobilized CD123
row,Binder,EC50
1,"parent mouse scFv (anti-CD123, clone 32716) (scFv, also called mouse Ctrl scFv) scFv: DIVLTQSPASLAVSLGQRATISCRASESVDNYGNTFMHWYQQKPGQPPKLLIYRASNLESGIPARFSGSGSRTDFTLTINPVEADDVATYYCQQSNEDPPTFGAGTKLELKGGGGSGGGGSSGGGSQIQLVQSGPELKKPGETVKISCKASGYIFTNYGMNWVKQAPGKSFKWMGWINTYTGESTYSADFKGRFAFSLETSASTAYLHINDLKNEDTATYFCARSGGYDPMDYWGQGTSVTVSS",1.1 to 2.6 nM

# Biological target: T2, human CD123-Fc
# Assay: flow cytometry of transduced T cells (day 10) stained with human CD123-Fc, then anti-human Fc PE; unit not given
# Text: To detect the transduction efficiency and level of expression of each construct, transduced T cells on day 10 of expansion were stained with (i) Alexa fluor 647 goat anti-mouse F(ab) reagent, (ii) FITC goat anti-human F(ab), or (iii) human CD123-Fc primary followed by anti-human Fc PE.
row,Binder,Expression by CD123-Fc
1,"CAR 8 - Full (humanized CD123 CAR) (other, Chimeric antigen receptor on transduced human T cells; also called UL69-05CC) QIQLVQSGAEVKKPGASVKVSCKASGYIFTNYGMNWVRQAPGQRLEWMGWINTYTGESTYSADFKGRVTITLDTSASTAYMELSSLRSEDTAVYYCARSGGYDPMDYWGQGTTVTVSSGGGGSGGGGSGGGGSGGGGSEIVLTQSPATLSLSPGERATLSCRASESVDNYGNTFMHWYQQKPGQAPRLLIYRASNLESGIPARFSGSGSRTDFTLTISSLEPEDVAVYYCQQSNEDPPTFGQGTKLEIKTTTPAPRPPTPAPTIASQPLSLRPEACRPAAGGAVHTRGLDFACDIYIWAPLAGTCGVLLLSLVITLYCKRGRKKLLYIFKQPFMRPVQTTQEEDGCSCRFPEEEEGGCELRVKFSRSADAPAYKQGQNQLYNELNLGRREEYDVLDKRRGRDPEMGGKPRRKNPQEGLYNELQKDKMAEAYSEIGMKGERRRGKGHDGLYQGLSTATKDTYDALHMQALPPR",73.2
2,"CD123 CAR 1172 (mouse anti-human CD123 CAR, scFv 32716 light-to-heavy, CD8 hinge, 4-1BB, CD3zeta) (other, Chimeric antigen receptor expressed on human T cells; also called C1172; clone 72) GSDIVLTQSPASLAVSLGQRATISCRASESVDNYGNTFMHWYQQKPGQPPKLLIYRASNLESGIPARFSGSGSRTDFTLTINPVEADDVATYYCQQSNEDPPTFGAGTKLELKGGGGSGGGGSSGGGSQIQLVQSGPELKKPGETVKISCKASGYIFTNYGMNWVKQAPGKSFKWMGWINTYTGESTYSADFKGRFAFSLETSASTAYLHINDLKNEDTATYFCARSGGYDPMDYWGQGTSVTVSSASSGTTTPAPRPPTPAPTIASQPLSLRPEACRPAAGGAVHTRGLDFACDIYIWAPLAGTCGVLLLSLVITLYCKRGRKKLLYIFKQPFMRPVQTTQEEDGCSCRFPEEEEGGCELRVKFSRSADAPAYKQGQNQLYNELNLGRREEYDVLDKRRGRDPEMGGKPRRKNPQEGLYNELQKDKMAEAYSEIGMKGERRRGKGHDGLYQGLSTATKDTYDALHMQALPPR",32.3
3,"CAR 7 Full (humanized CD123 CAR) (other, Chimeric antigen receptor on transduced human T cells; also called WW88-24LB) QIQLVQSGAEVKKPGASVKVSCKASGYIFTNYGMNWVRQAPGQRLEWMGWINTYTGESTYSADFKGRVTITLDTSASTAYMELSSLRSEDTAVYYCARSGGYDPMDYWGQGTTVTVSSGGGGSGGGGSGGGGSGGGGSDIVLTQSPDSLAVSLGERATINCRASESVDNYGNTFMHWYQQKPGQPPKLLIYRASNLESGVPDRFSGSGSRTDFTLTISSLQAEDVAVYYCQQSNEDPPTFGQGTKLEIKTTTPAPRPPTPAPTIASQPLSLRPEACRPAAGGAVHTRGLDFACDIYIWAPLAGTCGVLLLSLVITLYCKRGRKKLLYIFKQPFMRPVQTTQEEDGCSCRFPEEEEGGCELRVKFSRSADAPAYKQGQNQLYNELNLGRREEYDVLDKRRGRDPEMGGKPRRKNPQEGLYNELQKDKMAEAYSEIGMKGERRRGKGHDGLYQGLSTATKDTYDALHMQALPPR",51
4,"109375 CAR6 - Full (humanized CD123 CAR) (other, Chimeric antigen receptor; also called MW89-29GB) QIQLVQSGSELKKPGASVKVSCKASGYIFTNYGMNWVRQAPGQGLEWMGWINTYTGESTYSADFKGRFVFSLDTSVSTAYLQINALKAEDTAVYYCARSGGYDPMDYWGQGTTVTVSSGGGGSGGGGSGGGGSGGGGSEIVLTQSPATLSLSPGERATLSCRASESVDNYGNTFMHWYQQKPGQAPRLLIYRASNLESGIPARFSGSGSRTDFTLTISSLEPEDVAVYYCQQSNEDPPTFGQGTKLEIKTTTPAPRPPTPAPTIASQPLSLRPEACRPAAGGAVHTRGLDFACDIYIWAPLAGTCGVLLLSLVITLYCKRGRKKLLYIFKQPFMRPVQTTQEEDGCSCRFPEEEEGGCELRVKFSRSADAPAYKQGQNQLYNELNLGRREEYDVLDKRRGRDPEMGGKPRRKNPQEGLYNELQKDKMAEAYSEIGMKGERRRGKGHDGLYQGLSTATKDTYDALHMQALPPR",0.64
5,"CAR 5 - Full (humanized CD123 CAR) (other, Chimeric antigen receptor on transduced human T cells; also called GW86-29RB) QIQLVQSGSELKKPGASVKVSCKASGYIFTNYGMNWVRQAPGQGLEWMGWINTYTGESTYSADFKGRFVFSLDTSVSTAYLQINALKAEDTAVYYCARSGGYDPMDYWGQGTTVTVSSGGGGSGGGGSGGGGSGGGGSDIVLTQSPDSLAVSLGERATINCRASESVDNYGNTFMHWYQQKPGQPPKLLIYRASNLESGVPDRFSGSGSRTDFTLTISSLQAEDVAVYYCQQSNEDPPTFGQGTKLEIKTTTPAPRPPTPAPTIASQPLSLRPEACRPAAGGAVHTRGLDFACDIYIWAPLAGTCGVLLLSLVITLYCKRGRKKLLYIFKQPFMRPVQTTQEEDGCSCRFPEEEEGGCELRVKFSRSADAPAYKQGQNQLYNELNLGRREEYDVLDKRRGRDPEMGGKPRRKNPQEGLYNELQKDKMAEAYSEIGMKGERRRGKGHDGLYQGLSTATKDTYDALHMQALPPR",46.1
